Here are results for three substances from publication PMC5518211.

A word on the Kd: it is the concentration at which binding is half-saturated.

For assay [1], the target named is Calmodulin labeled with Cyanine5 (not stated (human brain CaM or recombinant bovine CaM bought)). The assay can be described thus: MST.
The target in assay [2] is Calmodulin (not stated (human brain CaM or recombinant bovine CaM bought)) (UniProt P0DP23). Nature of the assay: SPR. On the technique in general: SPR reads the build-up and loss of mass on a sensor chip optically.

Full-length recombinant human neurogranin with a His-tag at the N-terminus, sequence (Q92686 whole entry): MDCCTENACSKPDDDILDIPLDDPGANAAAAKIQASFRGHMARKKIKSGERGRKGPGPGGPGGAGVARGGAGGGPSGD

With “Full-length recombinant human neurogranin with a His-tag at the N-terminus (from UniProt Q92686) (natural protein)”, in assay [1], the Kd is 890 nM. For “Peptide corresponding to the CaM-binding region of CaMKIIα (CaMKII 290-309) (from UniProt Q9UQM7 290-309)”, the Kd in assay [1] came out at 190 nM. With “IQ-motif containing peptide of neurogranin (Ng 27-50) (from UniProt Q92686 27-50)”, the Kd in assay [2] worked out at 14000 nM.
